biological target: HLA-A*02:01; test: IEDB peptide-MHC binding, purified MHC/competitive/radioactivity; ≥ and ≤ were set here for values at or beyond the usual limits of such assays; conditions: source organism: Vaccinia virus WR

Sequence | IC50 [nM]
FMLPKQDIV | 4.9
YLYQPCDLL | 1.8
IIVALTIMGV | 216
LTREMGFLV | 2360
MLIEVILTA | 5
FLSRLVLYA | 0.075
ILSAVAIFCI | 13
ILRKIFYSV | 126
FMASPENVIL | 1070
ITLTNVVNI | 927
LILSLTCSV | 1.3
FLHESDPMVI | 1.1
KLFYVYYNL | 0.49
IVLFILKIFV | 271
DTWGSDGNPI | 1150
ELIKELTTL | 134
VVCNDLYKV | 174
FLSYISDTV | 0.54
RLSTEERHI | 708
TIDGRIVTL | 2170
FTISMRYQSL | 4300
ETIGNQLYL | 3540
YLLCCNYKL | 0.36
FTFTIYTDEV | 352
YASIINRDI | 2230
SIFINKLNGA | 1820

Sequence | IC50 [nM]
YLLDDVLYT | 1.3
YLTVSFIDET | 4780
SLYDQKEINA | 267
ITNGYLISI | 54
GLNDYLHSV | 1.3
WLTSILLSL | 1.2
TVIHLEWLL | 5.6
LIVRYLIQV | 13
TMLSIILVI | 1.4
FIIEVSNCV | 13
YQYIFLSFFA | 19
LLNPCLINV | 3.4
RLNDFLGLL | 11
WLLCKLSCA | 151
YLVDVETIGV | 0.17
STIATYIDAL | 2780
FQQPQFQYL | 48
FLLRSIIVA | 3.1
GLIYSMEFT | 1220
KLITFLFVI | 15
YTDSIQDLL | 933
ILSNYVKTL | 313
MLVNRMQRI | 48
KTMAVTYEL | 0.4
RVETSPRPT | 1960
VTLLCVLPAV | 3.8

Sequence | IC50 [nM]
KQFIQRGGL | 3990
SITKEKIKI | 4810
NLATSIYTI | 1.2
QAIMESDSFL | 67
FVIVIYIFT | 3470
HLIFSYAFL | 105
TMLMFIFTGI | 0.89
LTFWQIDYL | 7.3
ALTNAQFFV | 1.3
IVSVSESNI | 2350
GIFCFRILL | 7.8
PIKFIAEFLV | 4460
FLSLMSLSI | 3.5
LLLETKTILV | 3.3
RTNEEFDPV | 140
VTLQKVLHV | 622
FLHNYILYA | 0.54
KMEYNLYAEL | 297
YLLFGIKCI | 27
FVADRLISEL | 1880
RLYDLTRYA | 4
EIIPSSIPV | 4650
AIIDIEPDL | 301
NTFYLFTFTI | 55
YITALNHLV | 0.71
FTYYPTNKL | 1730

Sequence | IC50 [nM]
TLIDDPDNNL | 781
LMIEYNLLT | 1.5
ALVASLNPNM | 1330
RINDDSKSIL | 4360
FTLNHVLAL | 1.5
YLPLSVFII | 6.2
ILLFVIVIYI | 7.8
HIFYQLANV | 5.8
WLIGFDFDV | 0.06
TLLCVLPAVV | 2.5
AVNEEWLTAV | 390
MIYGLIACL | 8.5
DMTKVDVEL | 3990
FVILYLLAV | 7.8
LLLWPLYVL | 0.21
VMTPSPFYT | 2660
SIFGFQAEV | 0.54
KISLDISQL | 2280
DLLSYYVVYV | 0.45
SIEGELESL | 3940
IMYTYFSNTI | 99
LLSYYVVYV | 0.46
ILFNLSKFLL | 4
TAYEINNEL | 925
YTYAFTKKV | 16
IMFTCMDPL | 2.1

Sequence | IC50 [nM]
YAVTKTDGI | 3060
YLLPGFVLT | 5.7
NLFDIPLLTV | 0.33
STEERHIFL | 2250
FIILLLAIV | 596
VMDNDDNIL | 719
VMNNLSELTA | 453
GLVRLNAFL | 1.7
ALFGIKLPAL | 2.5
FLLIRYITT | 46
ILDDNLYKV | 1.3
EVGIKSVVV | 123
FIDSYLQKL | 24
FIHGGILYA | 8.8
LLVQRVTSV | 3.1
AMIELCGAFL | 0.78
YIIKKNDIV | 2000
AVLLTYFCFV | 3.4
MTPSPFYTVM | 1700
LVFIKPPLI | 55
GAENIVFNL | 4720
KMHDVIAPA | 2.6
YLSAKITTL | 5.5
TMFKIVYSL | 9.3
FLRGEAILQI | 85
TINNLKMML | 193

Reference: the Immune Epitope Database (IEDB)
